Measurements from US20210148907A1 (NATIONAL GUARD HEALTH AFFAIRS, published 2021).
One block for each binder: values may come before it.

Assays:
[1] = target: Death-associated protein 3 (DAP3) (human, UniProt P51398 22-398); assay: co-immunoprecipitation with affi-gel-bound anti-Flag antibody from transfected HeLa cells; Western blot with anti-DAP3
Description: Briefly, equal numbers of HeLa cells were transfected with a control vector or Flag-epitope tagged N-terminus domain of BCL10 (aa. 1-97), C-terminus domain (aa. 104-233) or the full length BCL10. After 48 h of incubation, equal extracts (200 μg) from the transfected cells were incubated with a 50 μL of affi-gel-bound anti-Flag antibody. […] The expression of the Flag-BCL10 protein variants in the extracts (IB) was also assessed. β-actin was used as a loading control to ensure equal protein loading.

[2] = target: T1, human serum albumin (AffiGel 10-bound, HSA Column) (human, UniProt P02768 25-609); assay: Western blot of the eluate of the HSA control column with specific primary antibodies
T1 construct: also called HSA control column

[3] = target: T1, human serum albumin (AffiGel 10-bound, …); assay: AffiGel-HSA control column loaded with the HeLa S100 >800 kDa fraction; tandem mass spectrometry of the eluate

B1: Flag-epitope tagged N-terminus domain of BCL10 (aa. 1-97) (other, not shown: small tags and cut ends)
chain: MEPTAPSLTEEDLTEVKKDALENLRVYLCEKIIAERHFDHLRAKKILSREDTEEISCRTSSRKRAGKLLDYLQENPKGLDTLVESIRREKTQNFLIQ
notes: Expressed in transfected HeLa cells; also called amino terminal CARD domain (aa 1-97); CARD (N-terminus) domain of BCL10
binding result [1]: no binding

binding result [2]: no binding
B2: Insulin-like growth factor II (IGF-II) messenger RNA (mRNA)-binding protein-3 (IMP3) (other, UniProt O00425 1-579, looked up)
chain: MNKLYIGNLSENAAPSDLESIFKDAKIPVSGPFLVKTGYAFVDCPDESWALKAIEALSGKIELHGKPIEVEHSVPKRQRIRKLQIRNIPPHLQWEVLDSLLVQYGVVESCEQVNTDSETAVVNVTYSSKDQARQALDKLNGFQLENFTLKVAYIPDEMAAQQNPLQQPRGRRGLGQRGSSRQGSPGSVSKQKPCDLPLRLLVPTQFVGAIIGKEGATIRNITKQTQSKIDVHRKENAGAAEKSITILSTPEGTSAACKSILEIMHKEAQDIKFTEEIPLKILAHNNFVGRLIGKEGRNLKKIEQDTDTKITISPLQELTLYNPERTITVKGNVETCAKAEEEIMKKIRESYENDIASMNLQAHLIPGLNLNALGLFPPTSGMPPPTSGPPSAMTPPYPQFEQSETETVHLFIPALSVGAIIGKQGQHIKQLSRFAGASIKIAPAEAPDAKVRMVIITGPPEAQFKAQGRIYGKIKEENFVSPKEEVKLEAHIRVPSFAAGRVIGKGGKTVNELQNLSSAEVVVPRDQTPDENDQVVVKITGHFYACQVAQRKIQEILTQVKQHQQQKALQSGPPQSRRK
notes: Endogenous protein of HeLa cells; It describes the protein as IGF2BP3 with a mass of 63705 Da and also lists NP_006538; also called IMAP3; IGF2BP3

binding result [3]: no binding
B3: Phosphatase of Regenerative Liver (PRL1/protein tyrosine phosphatase PTP4A1) (enzyme)
chain: MARMNRPAPVEVTYKNMRFLITHNPTNATLNKFIEELKKYGVTTIVRVCEATYDTTLVEKEGIHVLDWPFDDGAPPSNQIVDDWLSLVKIKFREEPGCCIAVHCVAGLGRAPVLVALALIEGGMKYEDAVQFIRQKRRGAFNSKQLLYLEKYRPKMRLRFKDSNGHRNNC
notes: Endogenous protein of HeLa cells; also called PRL1/PTP4A1
